Measured values: article PMC4338599 (Science (New York, N.Y.), 2015)

Molecular target: the molecule itself
Experiment: native MS

B1: PAXX residues 1-145 (PAXX^1-145) (domain or fragment)
chain: MDPLSPPLCTLPPGPEPPRFVCYCEGEESGEGDRGGFNLYVTDAAELWSTCFTPDSLAALKARFGLSAAEDITPRFRAACEQQAVALTLQEDRASLTLSGGPSALAFDLSKVPGPEAAPRLRALTLGLAKRVWSLERRLAAAEET
- stoichiometry N: 2
